Reference: publication PMC8580320 (Science Advances, 2021)

Biological target: the molecule itself
Assay: crystal structure

B1: MtaLonC-S582A (enzyme)
chain: MRLSYEALEWRTPIENSTEPVSLPPPPPFFGQERAREALELAIRGGFHAYLVGPPSLGKHEALLAYLSTQSVETPPDLLYVPLSERKVAVLTLPSGQEIHLAEAVEGLLLEVNRLDELFRQGSFLREKTQLEARFKEAREQQLEALRREAQEAGFALSTNGERLELTGPGPVPAELSARLEEVTLGSLAASAELEVALRRLRRDWALHYLNNRFEPLFQRFPQARAYLEALRARLARYAETGEPLDPAQWRPNLLTSSSSGTPPPIVYEPYATAPRLFGRLDYLVDRGVWSTNVSLIRPGAVHRAQGGYLILDALSLKREGTWEAFKRALRNGQVEPVTEPQAPAGLEVEPFPIQMQVILVGTPEAFEGLEEDPAFSELFRIRAEFSPTLPASPENCTALGGWLLAQGFQLTQGGLTRLYDEARRMAEQRDRMDARLVEIRALAEEAAVLGGGLLTAESVEQAIAAREHRSFLSEEEFLRAVQEGVIRLRTTGRAVGEVNSLVVVEAAPYWGRPARLTARAAPGRDHLISIDREAGLGGQIFHKAVLTLAGYLRSRYIEHGSLPVTISLAFEQNYVSIEGDAAGLAELVAALSAIGNLPLRQDLAVTGAVDQTGKVLAVGAINAKVEGFFRVCKALGLSGTQGVILPEANLANLTLRAEVLEAVRAGQFHIYAVETAEQALEILAGARMEGFRGLQEKIRAGLEAFARLEEGHDKEDREKLAAALEHHHHHH
stoichiometry N: 6
